Results as given in patent US20070207967A1 (CTT CANCER TARGETING TECHNOLOGIES, published 2007).
Ends that are not written are not given here.

T1: pro-MMP-2 (UniProt P08253 30-660, limits assumed)
T1 sequence (looked up): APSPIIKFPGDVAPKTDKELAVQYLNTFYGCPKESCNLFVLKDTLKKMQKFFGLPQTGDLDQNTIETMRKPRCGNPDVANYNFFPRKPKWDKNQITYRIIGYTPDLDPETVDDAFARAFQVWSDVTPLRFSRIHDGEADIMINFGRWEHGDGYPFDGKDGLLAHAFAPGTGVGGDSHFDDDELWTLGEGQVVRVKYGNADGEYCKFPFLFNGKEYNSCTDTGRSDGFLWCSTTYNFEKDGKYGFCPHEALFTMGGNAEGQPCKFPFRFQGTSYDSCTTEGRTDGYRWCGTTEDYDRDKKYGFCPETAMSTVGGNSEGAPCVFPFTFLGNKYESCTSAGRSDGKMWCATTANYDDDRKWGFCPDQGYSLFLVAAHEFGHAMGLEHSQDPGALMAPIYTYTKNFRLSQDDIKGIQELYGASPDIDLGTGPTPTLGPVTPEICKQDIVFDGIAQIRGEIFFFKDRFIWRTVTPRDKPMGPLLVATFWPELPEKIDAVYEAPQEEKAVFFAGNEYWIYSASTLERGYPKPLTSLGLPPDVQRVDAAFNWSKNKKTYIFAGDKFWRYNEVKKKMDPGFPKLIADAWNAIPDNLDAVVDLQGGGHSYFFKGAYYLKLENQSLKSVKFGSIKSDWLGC

B1: MMP-9 collagen binding domain (CBD), amino acids Gly204-Gly373 (other, UniProt P14780 223-392, looked up)
chain: GNADGAACHFPFIFEGRSYSACTTDGRSDGLPWCSTTANYDTDDRFGFCPSERLYTQDGNADGKPCQFPFIFQGQSYSACTTDGRSDGYRWCATTANYDRDKLFGFCPTRADSTVMGGNSAGELCVFPFTFLGKEYSTCTSEGRGDGRLWCATTSNFDSDKKWGFCPDQG
modifications: biotinylated with sulfo-NHS-LC-biotin in some experiments
notes: range 223-392; Vector-derived residues (start Met from the NdeI site) not described further; also called recombinant CBD; biotinylated CBD
B2: PPC peptide-bearing phage (CGYGRFSPPC displayed on phage) (peptide)
peptide: CGYGRFSPPC
modifications: cysteine pairing not given here; also: displayed on phage
notes: also called PPC phage; phage carrying PPC
B3: fibronectin-derived peptide TTPNSLLVSWQPPRARIT (peptide)
peptide: TTPNSLLVSWQPPRARIT
notes: Synthesized on a cellulose membrane (pepspot); also called PPC-like fibronectin peptide
B4: integrin β5 I-EGF2+3 fragment (Glu476-Asn563) with N-terminal His6-tag (receptor, UniProt P18084 499-586, looked up)
chain: ECQDGENQSVYQNLCREAEGKPLCSGRGDCSCNQCSCFESEFGKIYGPFCECDNFSCARNKGVLCSGHGECHCGECKCHAGYIGDNCN
modifications: biotinylated where used as the labelled ligand
notes: range 476-563; also called I-EGF2+3 fragment of β5 integrin; biotinylated β5 I-EGF2+3; not shown: N-terminal His6-tag from the pHAT2 vector
B5: pro-MMP-9 (purified human pro-matrix metalloproteinase-9) (enzyme, UniProt P14780 20-707, looked up)
chain: APRQRQSTLVLFPGDLRTNLTDRQLAEEYLYRYGYTRVAEMRGESKSLGPALLLLQKQLSLPETGELDSATLKAMRTPRCGVPDLGRFQTFEGDLKWHHHNITYWIQNYSEDLPRAVIDDAFARAFALWSAVTPLTFTRVYSRDADIVIQFGVAEHGDGYPFDGKDGLLAHAFPPGPGIQGDAHFDDDELWSLGKGVVVPTRFGNADGAACHFPFIFEGRSYSACTTDGRSDGLPWCSTTANYDTDDRFGFCPSERLYTQDGNADGKPCQFPFIFQGQSYSACTTDGRSDGYRWCATTANYDRDKLFGFCPTRADSTVMGGNSAGELCVFPFTFLGKEYSTCTSEGRGDGRLWCATTSNFDSDKKWGFCPDQGYSLFLVAAHEFGHALGLDHSSVPEALMYPMYRFTEGPPLHKDDVNGIRHLYGPRPEPEPRPPTTTTPQPTAPPTVCPTGPPTVHPSERPTAGPTGPPSAGPTGPPTAGPSTATTVPLSPVDDACNVNIFDAIAEIGNQLYLFKDGKYWRFSEGRGSRPQGPFLIADKWPALPRKLDSVFEERLSKKLFFFSGRQVWVYTGASVLGPRRLDKLGLGADVAQVTGALRSGRGKMLLFSGRRLWRFDVKAQMVDPRSASEVDRMFPGVPLDTHDVFQYREKAYFCQDRFYWRVSSRSELNQVDQVGYVTYDILQCPED
notes: Purified proenzyme in plate assays; endogenous pro-MMP-9 of HT1080 and THP-1 cells in the co-immunoprecipitations
B6: CRV phage (CRVYGPYLLC displayed on phage) (peptide)
peptide: CRVYGPYLLC
modifications: cysteine pairing not given here; also: displayed on phage as coat protein fusion
notes: also called phage carrying CRV

Experiments:
[1] = biological target: T2, urea-denaturated human plasma vitronectin (human, UniProt P04004 20-478); assay: solid phase binding assay (discussion)
T2 construct: also called VN
T2 sequence (P04004 20-478 limits assumed): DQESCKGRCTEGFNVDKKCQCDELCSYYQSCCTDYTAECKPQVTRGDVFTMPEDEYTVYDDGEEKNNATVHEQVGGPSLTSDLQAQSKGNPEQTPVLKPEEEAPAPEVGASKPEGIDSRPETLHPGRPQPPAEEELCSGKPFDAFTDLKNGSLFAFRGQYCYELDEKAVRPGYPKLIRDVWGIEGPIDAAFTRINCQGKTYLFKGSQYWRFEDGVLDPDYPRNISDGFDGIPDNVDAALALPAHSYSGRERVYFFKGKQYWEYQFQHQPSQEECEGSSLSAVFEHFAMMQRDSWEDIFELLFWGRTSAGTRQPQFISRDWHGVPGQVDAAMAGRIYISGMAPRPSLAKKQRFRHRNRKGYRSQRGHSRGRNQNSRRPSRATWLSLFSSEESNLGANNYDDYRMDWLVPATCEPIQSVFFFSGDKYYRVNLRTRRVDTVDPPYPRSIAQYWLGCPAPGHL

[2] = biological target: B5; assay: phage display selection; table of pro-MMP-9 binding peptide sequences, group I CBD-binding; (6) is the number of isolated phage
[3] = biological target: B5; assay: phage display selection; table of pro-MMP-9 binding peptide sequences, group I CBD-binding
[4] = biological target: B1; assay: pepspot membrane assay, chemiluminescence
[5] = biological target: B1; assay: solid phase assay, streptavidin-peroxidase
[6] = biological target: the molecule itself; assay: solid phase assay, streptavidin-peroxidase
[7] = biological target: T2, urea-denaturated human plasma …; assay: solid phase assay, streptavidin-peroxidase
platelet integrin αIIbβ3 = platelet integrin αIIbβ3 (UniProt P08514 32-1039; P05106 27-788); assay: pro-MMP-9 on immobilized integrin, read out by biotinylated gelatin
Chain of platelet integrin αIIbβ3 (P08514 32-1039, chain 1 of 2): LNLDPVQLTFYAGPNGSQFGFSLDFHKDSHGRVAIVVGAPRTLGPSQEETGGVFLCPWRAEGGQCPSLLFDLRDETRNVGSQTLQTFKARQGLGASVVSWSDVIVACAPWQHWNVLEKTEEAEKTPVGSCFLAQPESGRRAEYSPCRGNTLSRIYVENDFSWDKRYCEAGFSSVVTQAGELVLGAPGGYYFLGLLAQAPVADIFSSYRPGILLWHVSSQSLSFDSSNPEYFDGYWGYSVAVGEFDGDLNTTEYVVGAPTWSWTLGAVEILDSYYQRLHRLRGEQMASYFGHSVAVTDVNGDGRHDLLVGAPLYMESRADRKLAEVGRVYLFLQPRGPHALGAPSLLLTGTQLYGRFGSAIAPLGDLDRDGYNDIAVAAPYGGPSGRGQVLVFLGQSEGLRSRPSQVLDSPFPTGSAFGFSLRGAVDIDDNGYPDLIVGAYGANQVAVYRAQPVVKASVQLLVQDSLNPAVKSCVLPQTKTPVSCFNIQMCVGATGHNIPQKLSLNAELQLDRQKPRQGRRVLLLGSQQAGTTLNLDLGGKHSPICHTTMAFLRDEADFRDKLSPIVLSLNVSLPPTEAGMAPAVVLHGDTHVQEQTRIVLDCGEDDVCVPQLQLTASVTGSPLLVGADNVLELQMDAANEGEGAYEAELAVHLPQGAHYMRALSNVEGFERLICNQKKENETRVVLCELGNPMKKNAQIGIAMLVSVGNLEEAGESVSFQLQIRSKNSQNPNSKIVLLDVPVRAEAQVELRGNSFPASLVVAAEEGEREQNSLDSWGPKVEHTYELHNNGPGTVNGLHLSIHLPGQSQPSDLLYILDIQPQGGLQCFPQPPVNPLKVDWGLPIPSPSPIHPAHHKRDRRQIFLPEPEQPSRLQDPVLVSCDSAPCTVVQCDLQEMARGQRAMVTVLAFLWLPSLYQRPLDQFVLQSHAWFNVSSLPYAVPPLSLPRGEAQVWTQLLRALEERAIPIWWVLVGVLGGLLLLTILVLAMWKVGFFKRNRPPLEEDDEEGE
Chain of platelet integrin αIIbβ3 (P05106 27-788, chain 2 of 2): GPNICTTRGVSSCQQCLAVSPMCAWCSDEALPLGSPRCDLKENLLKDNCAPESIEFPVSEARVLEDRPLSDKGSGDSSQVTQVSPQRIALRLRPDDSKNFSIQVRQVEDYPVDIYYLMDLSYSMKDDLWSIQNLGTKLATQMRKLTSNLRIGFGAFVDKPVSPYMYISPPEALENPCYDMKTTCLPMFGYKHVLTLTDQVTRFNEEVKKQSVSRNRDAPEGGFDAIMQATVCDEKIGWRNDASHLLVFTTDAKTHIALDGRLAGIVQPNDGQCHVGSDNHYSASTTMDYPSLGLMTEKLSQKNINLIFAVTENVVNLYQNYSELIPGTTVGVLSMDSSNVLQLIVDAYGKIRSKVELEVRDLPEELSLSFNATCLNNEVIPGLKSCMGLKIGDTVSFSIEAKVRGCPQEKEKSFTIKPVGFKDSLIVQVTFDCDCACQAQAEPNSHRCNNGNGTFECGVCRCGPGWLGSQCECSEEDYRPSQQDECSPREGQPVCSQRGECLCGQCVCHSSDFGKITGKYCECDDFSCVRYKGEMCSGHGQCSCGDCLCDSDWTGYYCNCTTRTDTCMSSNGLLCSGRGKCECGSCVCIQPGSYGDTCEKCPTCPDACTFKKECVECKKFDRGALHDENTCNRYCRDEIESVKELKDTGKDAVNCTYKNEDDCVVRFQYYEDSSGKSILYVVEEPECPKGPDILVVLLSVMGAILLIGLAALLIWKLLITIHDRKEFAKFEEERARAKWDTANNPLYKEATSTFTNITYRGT

[8] = biological target: T3, αVβ3 integrin of HT1080 cells (human, UniProt P06756 31-1048; P05106 27-788); assay: immunoprecipitation with anti-integrin antisera, western blot for MMP-9
T3 construct: whole, on cells
T3 sequence (P06756 31-1048, chain 1 of 2): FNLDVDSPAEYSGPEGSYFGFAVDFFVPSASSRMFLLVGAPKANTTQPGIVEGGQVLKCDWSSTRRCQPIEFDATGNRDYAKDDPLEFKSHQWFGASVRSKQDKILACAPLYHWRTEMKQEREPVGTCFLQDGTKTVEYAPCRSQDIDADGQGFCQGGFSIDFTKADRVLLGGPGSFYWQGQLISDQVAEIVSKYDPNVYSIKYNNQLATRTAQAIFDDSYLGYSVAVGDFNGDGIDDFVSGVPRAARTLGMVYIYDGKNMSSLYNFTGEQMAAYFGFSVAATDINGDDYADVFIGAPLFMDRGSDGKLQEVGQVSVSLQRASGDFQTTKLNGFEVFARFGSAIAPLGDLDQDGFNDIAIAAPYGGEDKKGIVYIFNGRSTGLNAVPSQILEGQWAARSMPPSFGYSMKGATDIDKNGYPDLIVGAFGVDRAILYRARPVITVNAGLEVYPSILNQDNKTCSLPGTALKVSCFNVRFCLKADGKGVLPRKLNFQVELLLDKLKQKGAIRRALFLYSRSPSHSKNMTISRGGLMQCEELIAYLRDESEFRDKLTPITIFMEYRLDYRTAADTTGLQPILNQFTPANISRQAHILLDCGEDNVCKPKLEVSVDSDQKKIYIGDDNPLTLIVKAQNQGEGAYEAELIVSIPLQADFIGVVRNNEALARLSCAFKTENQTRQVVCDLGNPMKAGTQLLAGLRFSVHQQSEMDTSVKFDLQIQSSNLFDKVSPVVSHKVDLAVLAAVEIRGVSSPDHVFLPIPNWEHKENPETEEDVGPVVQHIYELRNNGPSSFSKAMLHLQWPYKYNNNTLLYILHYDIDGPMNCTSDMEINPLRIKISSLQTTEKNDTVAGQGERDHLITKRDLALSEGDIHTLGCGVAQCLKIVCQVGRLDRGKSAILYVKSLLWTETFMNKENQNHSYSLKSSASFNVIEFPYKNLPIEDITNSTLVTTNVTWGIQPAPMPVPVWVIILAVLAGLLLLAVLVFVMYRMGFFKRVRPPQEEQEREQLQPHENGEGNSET
T3 sequence (P05106 27-788, chain 2 of 2): as the sequence (P05106 27-788, chain 2 of 2) above

[9] = biological target: T4, pro-MMP-9-ΔHC (Ala1-Gly424), pro-MMP-9 lacking the hinge region and the C domain (UniProt P14780 20-444); assay: phage binding assay (not shown)
T4 construct: range 20-444

pro-MMP-3 = pro-MMP-3 (UniProt P08254 18-477, limits assumed); assay: phage binding assay
Chain of pro-MMP-3 (P08254 18-477 limits assumed): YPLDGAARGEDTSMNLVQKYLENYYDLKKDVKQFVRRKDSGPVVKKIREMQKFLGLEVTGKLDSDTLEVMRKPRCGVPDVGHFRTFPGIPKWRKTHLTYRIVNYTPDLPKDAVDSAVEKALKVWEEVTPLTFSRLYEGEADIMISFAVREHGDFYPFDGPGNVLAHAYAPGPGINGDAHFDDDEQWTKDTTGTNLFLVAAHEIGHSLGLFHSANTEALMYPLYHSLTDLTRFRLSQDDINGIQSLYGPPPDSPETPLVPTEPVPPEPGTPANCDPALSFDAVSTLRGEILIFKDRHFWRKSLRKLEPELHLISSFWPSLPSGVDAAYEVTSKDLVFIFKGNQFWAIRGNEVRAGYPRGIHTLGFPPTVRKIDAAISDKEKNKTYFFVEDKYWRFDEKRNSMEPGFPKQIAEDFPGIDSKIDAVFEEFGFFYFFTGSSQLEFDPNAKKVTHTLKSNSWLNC

pro-MMP-2 = biological target: T1, pro-MMP-2; assay: phage binding assay
[10] = biological target: B1; assay: phage binding assay

B1: binds [1].

B2: binds [2].

CGWGRYSPPC (cysteine pairing not given here; also: displayed on phage, selected by biopanning) [phage peptide CGWGRYSPPC]: binds [3].

CGFGRWQPPC (cysteine pairing not given here; also: displayed on phage, selected by biopanning) [phage peptide CGFGRWQPPC]: binds [3].

B3: binds [4].

B4: no binding (tested: biotinylated fragment 2.5 µg/ml) [5]; no binding (tested: biotinylated fragment 2.5 µg/ml) [6]; no binding (tested: biotinylated fragment 2.5 µg/ml) [7].

B5: no binding (platelet integrin αIIbβ3); no binding [8].

B6: no binding [9]; no binding (tested: 20 ng/well; 10^8 transducing units/well) (pro-MMP-3); no binding (tested: 20 ng/well; 10^8 transducing units/well) (pro-MMP-2). B6: no binding (tested: 20 ng/well; 10^8 transducing units/well) [10].
